# Source: patent publication US20240156928A1
# Molecular target: CD19 (UniProt P15391)
# Assay: cell-based or functional assay
substance,measurement,value
CD19R:CD28:z(CO) CAR with L235E and N297Q in the IgG4 spacer (CD19R(EQ)),"intracellular IFNγ staining, percent of T cells",30%
